Laboratory results from patent publication US20200199231A1 (Genmab, published 2020).

T1: human CD20 (human, UniProt P11836 1-297)
T1 construct: whole, on cells; On Daudi and other human B cell lines, on human B cells in blood, or transiently expressed in HEK293F cells (construct pEE12.4CD20HS-GA); also called wild type CD20; WT CD20
T1 sequence (looked up): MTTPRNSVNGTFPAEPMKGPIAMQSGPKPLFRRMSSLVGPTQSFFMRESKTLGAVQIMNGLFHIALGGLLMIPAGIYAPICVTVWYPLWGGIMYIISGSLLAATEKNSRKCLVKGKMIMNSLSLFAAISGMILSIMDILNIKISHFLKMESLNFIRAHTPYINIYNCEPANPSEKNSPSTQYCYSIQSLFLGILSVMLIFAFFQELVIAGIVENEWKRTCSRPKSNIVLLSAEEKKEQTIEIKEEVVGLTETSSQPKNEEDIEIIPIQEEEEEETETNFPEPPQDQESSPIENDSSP

T2: CD20 KDD mutant (human, UniProt P11836 1-297)
T2 construct: whole, on cells; Transiently expressed in HEK293F cells; also called T159K/N163D/N166D
T2 sequence (looked up): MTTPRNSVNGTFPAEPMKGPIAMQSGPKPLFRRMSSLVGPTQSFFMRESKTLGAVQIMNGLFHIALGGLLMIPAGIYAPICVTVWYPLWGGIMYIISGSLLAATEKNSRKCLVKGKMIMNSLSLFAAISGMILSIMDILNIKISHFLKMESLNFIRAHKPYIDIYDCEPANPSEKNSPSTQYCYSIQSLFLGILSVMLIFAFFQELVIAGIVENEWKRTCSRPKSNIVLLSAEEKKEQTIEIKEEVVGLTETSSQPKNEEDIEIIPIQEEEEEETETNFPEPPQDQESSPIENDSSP

T3: CD20-AxP (human, UniProt P11836 1-297)
T3 construct: whole, on cells; Transiently expressed in HEK293F cells; also called AxP mutant; CD20 mutant (CD20-AxP)
T3 sequence (looked up): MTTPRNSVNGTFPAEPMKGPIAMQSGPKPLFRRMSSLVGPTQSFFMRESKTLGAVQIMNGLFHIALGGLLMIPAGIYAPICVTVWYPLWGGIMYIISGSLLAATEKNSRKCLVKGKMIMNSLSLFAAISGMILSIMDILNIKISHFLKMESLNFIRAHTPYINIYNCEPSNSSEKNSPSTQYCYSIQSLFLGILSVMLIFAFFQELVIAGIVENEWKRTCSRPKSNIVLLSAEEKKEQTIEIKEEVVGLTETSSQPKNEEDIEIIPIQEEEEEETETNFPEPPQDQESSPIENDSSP

B1: IgG1-11B8 (antibody, V domains shown)
VH: EVQLVQSGGGLVHPGGSLRLSCTGSGFTFSYHAMHWVRQAPGKGLEWVSIIGTGGVTYYADSVKGRFTISRDNVKNSLYLQMNSLRAEDMAVYYCARDYYGAGSFYDGLYGMDVWGQGTTVTVSS
VL: EIVLTQSPATLSLSPGERATLSCRASQSVSSYLAWYQQKPGQAPRLLIYDASNRATGIPARFSGSGSGTDFTLTISSLEPEDFAVYYCQQRSDWPLTFGGGTKVEIK
notes: Monospecific, bivalent IgG1
B2: IgG1-7D8 (antibody, V domains shown)
VH: EVQLVESGGGLVQPDRSLRLSCAASGFTFHDYAMHWVRQAPGKGLEWVSTISWNSGTIGYADSVKGRFTISRDNAKNSLYLQMNSLRAEDTALYYCAKDIQYGNYYYGMDVWGQGTTVTVSS
VL: EIVLTQSPATLSLSPGERATLSCRASQSVSSYLAWYQQKPGQAPRLLIYDASNRATGIPARFSGSGSGTDFTLTISSLEPEDFAVYYCQQRSNWPITFGQGTRLEIK
notes: Monospecific, bivalent IgG1
B3: bsIgG1-huCD3-H1L1-FEALxCD20-2C6-FEAR (bispecific antibody)
heavy 1: not shown
light: not shown
heavy 2: AVQLVESGGGLVQPGRSLRLSCAASGFTFGDYTMHWVRQAPGKGLEWVSGISWNSGSIGYADSVKGRFTISRDNAKNSLYLQMNSLRAEDTALYYCTKDNQYGSGSTYGLGVWGQGTLVTVSSASTKGPSVFPLAPSSKSTSGGTAALGCLVKDYFPEPVTVSWNSGALTSGVHTFPAVLQSSGLYSLSSVVTVPSSSLGTQTYICNVNHKPSNTKVDKRVEPKSCDKTHTCPPCPAPEFEGGPSVFLFPPKPKDTLMISRTPEVTCVVVAVSHEDPEVKFNWYVDGVEVHNAKTKPREEQYNSTYRVVSVLTVLHQDWLNGKEYKCKVSNKALPAPIEKTISKAKGQPREPQVYTLPPSREEMTKNQVSLTCLVKGFYPSDIAVEWESNGQPENNYKTTPPVLDSDGSFFLYSRLTVDKSRWQQGNVFSCSVMHEALHNHYTQKSLSLSPGK
VL: EIVLTQSPATLSLSPGERATLSCRASQSVSSYLAWYQQKPGQAPRLLIYDASNRATGIPARFSGSGSGTDFTLTISSLEPEDFAVYYCQQRSNWPLTFGGGTKVEIK
notes: also called CD3x2C6; huCD3x2C6
B4: bsIgG1-huCLB-T3/4-FEALxCD20-2F2-FEAR (bispecific antibody)
heavy 1: EVQLVESGGGLVKPGGSLRLSCAASGFTFSSYGMFWVRQAPGKGLEWVATISRYSRYIYYPDSVKGRFTISRDNAKNSLYLQMNSLRAEDTAVYYCARRPLYGSSPDYWGQGTLVTVSSASTKGPSVFPLAPSSKSTSGGTAALGCLVKDYFPEPVTVSWNSGALTSGVHTFPAVLQSSGLYSLSSVVTVPSSSLGTQTYICNVNHKPSNTKVDKRVEPKSCDKTHTCPPCPAPEFEGGPSVFLFPPKPKDTLMISRTPEVTCVVVAVSHEDPEVKFNWYVDGVEVHNAKTKPREEQYNSTYRVVSVLTVLHQDWLNGKEYKCKVSNKALPAPIEKTISKAKGQPREPQVYTLPPSREEMTKNQVSLTCLVKGFYPSDIAVEWESNGQPENNYKTTPPVLDSDGSFLLYSKLTVDKSRWQQGNVFSCSVMHEALHNHYTQKSLSLSPGK
VL 1: EIVLTQSPATLSLSPGERATLSCSASSSVTYVHWYQQKPGQAPRLLIYDTSKLASGIPARFSGSGSGTDFTLTISSLEPEDFAVYYCFQGSGYPLTFGSGTKLEMR
heavy 2: EVQLVESGGGLVQPGRSLRLSCAASGFTFNDYAMHWVRQAPGKGLEWVSTISWNSGSIGYADSVKGRFTISRDNAKKSLYLQMNSLRAEDTALYYCAKDIQYGNYYYGMDVWGQGTTVTVSSASTKGPSVFPLAPSSKSTSGGTAALGCLVKDYFPEPVTVSWNSGALTSGVHTFPAVLQSSGLYSLSSVVTVPSSSLGTQTYICNVNHKPSNTKVDKRVEPKSCDKTHTCPPCPAPEFEGGPSVFLFPPKPKDTLMISRTPEVTCVVVAVSHEDPEVKFNWYVDGVEVHNAKTKPREEQYNSTYRVVSVLTVLHQDWLNGKEYKCKVSNKALPAPIEKTISKAKGQPREPQVYTLPPSREEMTKNQVSLTCLVKGFYPSDIAVEWESNGQPENNYKTTPPVLDSDGSFFLYSRLTVDKSRWQQGNVFSCSVMHEALHNHYTQKSLSLSPGK
VL 2: EIVLTQSPATLSLSPGERATLSCRASQSVSSYLAWYQQKPGQAPRLLIYDASNRATGIPARFSGSGSGTDFTLTISSLEPEDFAVYYCQQRSNWPITFGQGTRLEIK
notes: also called huCLB-T3/4x2F2; bsIgG1-huCLB-3/4-FEALxCD20-2F2-FEAR

Legend:
[1] = target: T1, human CD20; assay: flow cytometry on Daudi cells (CD20-positive, CD3-negative); PE-conjugated goat anti-human IgG F(ab')2; geomean (PE)
Description: (§1) In addition to the non-activating mutations, L234F, L235E, D265A, on both arms, the bispecific antibody contained an F405L mutation on one arm and a K409R mutation on the other arm.
(§2) Cells (1×10⁵ cells/well) were incubated in polystyrene 96-well round-bottom plates (Greiner bio-one, cat. no. 650101) with serial dilutions of antibodies (range 0.041 to 30 μg/mL in 3-fold dilution steps [A-E] and 0.00061 to 10 μg/mL in 4-fold dilution steps [F-I]) in 100 μL PBS/0.1% BSA/0.02% azide (from here designated as staining buffer) at 4° C. for 30 min.
(§3) After washing twice in staining buffer, cells were incubated in 50 μL secondary antibody at 4° C. for 30 min. As a secondary antibody, R-Phycoerythrin (PE)-conjugated goat-anti-human IgG F(ab′)₂ (cat. no. 109-116-098, Jackson ImmunoResearch Laboratories, Inc., West Grove, Pa.) diluted 1:200 in staining buffer, was used for all experiments. Next, cells were washed twice in staining buffer, re-suspended in 30 μL staining buffer and analyzed on an iQue screener (Intellicyt Corporation, USA) (for FIG. 1A-E) or re-suspended in 100 μL staining buffer and analyzed on a FACSCANTOII (BD Biosciences) (FIG. 1F-I). Binding curves were analyzed using non-linear regression (sigmoidal dose-response with variable slope) using GraphPad Prism V75.04 software (GraphPad Software, San Diego, Calif., USA).

[2] = target: T2, CD20 KDD mutant; assay: flow cytometry, HEK293F cells expressing CD20 KDD mutant
Description: (§4) PCR was performed on a Tgradient Thermocycler 96 (Biometra) using a 35 cycle program of: +95° C. for 15 min, followed by 35 cycles of: +94° C. for 30 sec, anneal: 55° C. for 30 sec and extension: +72° C. for 2 min, followed by a final extension step at 72° C. for 10 min and subsequent storage at 4° C. The completed reactions were analyzed by agarose gel electrophoresis. See Table 11 for details of primer pairs used for colony PCR. DNA sequencing: Plasmid DNA samples were send to AGOWA (Berlin, Germany) for sequence analysis. Sequences were analyzed using the VectorNTI software package (Informax, Frederick, Md., USA).
(§5) Mutagenesis: The mutagenesis was performed, using the QuikChange® XL Site-Directed Mutagenesis kit (Cat 200517-5, Lot 1120630, Stratagene Europe) according to the manufacturer's instructions. Mutagenesis reactions were concentrated using ethanol precipitation and transformed into either oneshot DH5α-TIR competent E. coli cells or electroporated into ElectroTen-Blue® Electroporation-Competent Cells. Colonies were checked by colony PCR and restriction digestion prior to transfection. […] Anti-CD20 Antibody binding: HEK293F cells were taken up in staining buffer (PBS supplemented with 0.1% BSA and 0.02% NaN₃) and added to round bottom plates (1-3×10⁵/well in 100 μL). […] After washing twice in staining buffer, cells were incubated in 50 μL secondary antibody at 4° C. for 30 min. As a secondary antibody, R-Phycoerythrin (PE)-conjugated goat-anti-human IgG F(ab′)₂ was used, as described supra. Next, cells were washed once in staining buffer, re-suspended in 150 μL staining buffer and analyzed on a flow cytometer (FACSCanto-720, Becton Dickinson, San Diego, Calif., USA) and 10,000 events per sample were acquired at high flow rate. Binding curves were analyzed using non-linear regression (sigmoidal dose-response with variable slope) using GraphPad Prism V75.04 software (GraphPad Software, San Diego, Calif., USA).

[3] = target: T1, human CD20; assay: flow cytometry on Daudi cells (CD20-positive, CD3-negative); PE-conjugated goat anti-human IgG F(ab')2; median FI (PE)
Description: as §1, §2, §3

[4] = target: T1, human CD20; assay: flow cytometry on HEK293F cells transiently expressing wild type CD20; PE-conjugated goat anti-human IgG F(ab')2; MFI
Description: as §4, §5

[5] = target: T3, CD20-AxP; assay: flow cytometry, HEK293F transfectants, MFI mutant/MFI wt at 10 µg/mL
Description: (§6) As a secondary antibody, R-Phycoerythrin (PE)-conjugated goat-anti-human IgG F(ab′)₂ was used, as described supra. Next, cells were washed once in staining buffer, re-suspended in 150 μL staining buffer and analyzed on a flow cytometer (FACSCanto-720, Becton Dickinson, San Diego, Calif., USA) and 10,000 events per sample were acquired at high flow rate. Binding curves were analyzed using non-linear regression (sigmoidal dose-response with variable slope) using GraphPad Prism V75.04 software (GraphPad Software, San Diego, Calif., USA).
(§7) Numbers indicate the percentage of binding to the CD20 mutants, relative to binding to wild type CD20, at 10 μg/mL. The percentage of binding was calculated by the following formula: (MFI binding to CD20 mutant)/(MFI binding CD20 wt) × 100%

[6] = target: T2, CD20 KDD mutant; assay: as above
Description: as §6, §7

[7] = target: T1, human CD20; assay: flow cytometry on Daudi cells (CD20-positive, CD3-negative); PE-conjugated goat anti-human IgG F(ab')2; median FI (PE); remark: listed apart in the source
Description: as §1, §2, §3

[8] = target: T3, CD20-AxP; assay: flow cytometry on HEK293F cells transiently expressing CD20-AxP (A170S/P172S); PE-conjugated goat anti-human IgG F(ab')2; MFI
Description: as §4, §5

[9] = target: T4, human CD3 (human, UniProt P07766 22-207); assay: flow cytometry on Jurkat cells (CD3-positive, CD20-negative); PE-conjugated goat anti-human IgG F(ab')2; median FI (PE)
T4 construct: CD3 as part of the TCR complex on Jurkat cells or human T cells; also called human CD3ε (epsilon)
T4 sequence (P07766 22-207 limits assumed): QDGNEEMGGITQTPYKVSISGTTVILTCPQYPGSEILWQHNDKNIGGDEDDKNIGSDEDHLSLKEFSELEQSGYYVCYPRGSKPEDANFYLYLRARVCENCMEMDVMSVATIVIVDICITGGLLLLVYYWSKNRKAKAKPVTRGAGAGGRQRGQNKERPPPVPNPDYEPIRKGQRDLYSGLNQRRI
Description: as §1, §2, §3

Row | Binder | EC50 (read off the curve) [1] [µg/mL] | binding result [2] | EC50 (read off the curve) [3] [µg/mL] | EC50 (read off the curve) [4] [µg/mL] | % of wt CD20 binding [5] [%] | % of wt CD20 binding [6] [%] | EC50 (read off the curve) [7] [µg/mL] | EC50 (read off the curve) [8] [µg/mL] | EC50 (read off the curve) [9] [µg/mL]
1 | B1 | ~2 | – | – | – | – | – | – | – | –
2 | B2 | ~0.6 | – | – | – | – | – | – | – | –
3 | B3 | – | no binding (tested: 0.0015-10 µg/mL) | ~0.9 | ~0.1 | 92 | 3 | – | – | –
4 | B4 | – | no binding (tested: 0.0015-10 µg/mL) | – | ~0.1 | 112 | 5 | ~0.3 | ~0.2 | ~0.06
